Measurements: patent US12098176B2, “Keratin BD-4, preparation method, and pharmaceutical composition and use thereof” (Institute of Materia Medica, Chinese Academy of Medical …, priority 2019, dated 2024)

Tested on: acetic acid writhing of ICR mice
Assay: Acetic acid writhing test in ICR mice
Type: in vivo, mouse
Conditions: for Number of twists / Writhing latency: 0.6% acetic acid i.p., within 15 minutes
Protocol: Experimental example 7 The pharmacodynamic test of protein BD-4 (Example 4 protein) on acetic acid writhing in ICR mice. Animals: male ICR mice; Drugs and reagents: aspirin, physiological saline, glacial acetic acid, protein BD-4. Experiment Grouping:
One day after the experimental animals adapt to the environment, Aspirin 300 mg/kg, protein BD-4 50 mg/kg, 200 mg/kg were given orally one hour in advance, and the administration volume was 10 ml/kg; Then, 0.6% acetic acid solution was injected into the abdominal cavity, and the latency period (seconds) and frequency of writhing in the animal was observed within 15 minutes.
Calculate the mean and standard error of the data in each group. Compared with the model group by TTEST, P<0.05 was considered as statistically different.
0.6% acetic acid solution was injected into the abdominal cavity of mice, which caused deep and large area and long-term painful stimulation, causing the mice to writhe (the abdomen was contracted into an “S” shape, the trunk and hind legs were stretched, the buttocks were raised and the hips Row). The incubation time and the number of times the mice began to writhe were used as the pain response index to determine whether the test sample had analgesic effect. […] Compared with the model group, P<0.05, which is statistically significant.

B1: BD-4: recombinant keratin, amino acid sequence SEQ ID NO: 1, expressed in E. coli; the protein of Example 4 was tested (protein, listed as Bos taurus)
chain: MSYSCCLPNLSFRSSCSSRPCVPSSCCGTTLPGACNIPANVGSCNWFCEGSFNGSEKETMQFLNDRLASYLEKVRQLERDNAELESRILERSQQQEPLVCPNYQSYFRTIEELQQKILCSKSENARLVVQIDNAKLASDDFRTKYETEVSLRQLVEADLNGLRRILDELTLCKSDLEARVESLKEELICLKQNHEQEVNTLRSQLGDRLNVEVDAAPTVDLNRVLNETRAQYEALVETNRRDVEEWYIRQTEELNKQVVSSSEQLQSYQAEIIELRRTVNALEVELQAQHNLRDSLENTLTETEARYSCQLAQVQGLIGNVESQLAEIRSDLERQNQEYQVLLDVRARLECEINTYRGLLDSEDCKLPCNPCATTNACERPCISNPCVSRARCGPCNTFVH
For B1, the Number of twists (50 mg/kg oral) was 16.9 ± 3.7 times, the Writhing latency (50 mg/kg oral) was 315.2 ± 66.3 s and the “Number of writhing times vs model group” value (50 mg/kg, P<0.05) was “significantly reduce the number of writhing times”. It also gave a Number of twists (200 mg/kg oral) of 25.1 ± 3.3 times and a Writhing latency (200 mg/kg oral) of 220.1 ± 16.6 s.
